Assay [1] has as its target Ste2p R58L, S95Y (Saccharomyces cerevisiae) (UniProt D6VTK4). As to the kind of experiment: flow cytometry on cells. In general terms: In flow cytometry, cells or beads pass a laser one at a time.
The target of assay [2] is Ste2p R58Q, S95Y (Saccharomyces cerevisiae) (UniProt D6VTK4). The experiment in a line: flow cytometry on cells.
Chain of Ste2p R58Q, S95Y (Saccharomyces cerevisiae) (D6VTK4 1-303 R58Q/S95Y): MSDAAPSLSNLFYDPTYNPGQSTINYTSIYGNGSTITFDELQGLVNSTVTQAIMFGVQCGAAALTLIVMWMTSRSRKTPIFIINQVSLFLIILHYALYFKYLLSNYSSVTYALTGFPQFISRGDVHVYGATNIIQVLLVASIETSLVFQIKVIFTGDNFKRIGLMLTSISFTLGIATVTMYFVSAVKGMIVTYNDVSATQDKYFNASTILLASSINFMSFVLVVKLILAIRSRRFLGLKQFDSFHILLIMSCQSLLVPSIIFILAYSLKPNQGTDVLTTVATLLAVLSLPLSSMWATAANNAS

Chain of Ste2p R58L, S95Y (Saccharomyces cerevisiae) (D6VTK4 1-303 R58L/S95Y): as the sequence (D6VTK4 1-303 R58Q/S95Y) above, with Q58L counted along it

For the substance [K^7(NBD),Nle^12] α-factor (peptide), the ligand binding at 300 nM ligand, % of wild-type levels (% of wild-type levels) in assay [1] turned out to be 13.7; in assay [2], 16.8.

For the origin of these results see article PMC4405178 (Biochemistry, 2015).
